Source: the DeepSol protein solubility set

Assay: soluble on expression in E. coli; label from the status in PepcDB or PDB records

| Sequence | soluble on expression in E. coli |
| --- | --- |
| MGSDKIHHHHHHMPVTAIFSPDTPAMGIGWRHPHYAGLLQTGPALDFIEVHSENFFAPGGAARAVLRQGREHYPVSLHGTGLSLGSACGVDEWHLAQLAELVQEIDPVRVSDHASFARGHLPGTDAPVHAADLLPVPFTREALAVMCSNVQRVQERLKRPIAVENLSAYLDWRAADMRETEFLAALAQRTGCSLLVDVNNLYVNAQNAWLRGALNSAPGDADAALASCRDWIDQIAASPVAELHLAGHAHLGDIVIDDHGSRVCAEVWQLYRHALARLGPVPTLIEWDTDVPALSVLLDEVARARGIAQGRPATRQPSAEARP | not soluble |
| MRKNILIFSLIAFSLTIHCSEIRVQRSLEESITKDYDQDGVYSSYEKALRRTQESVYVTLPEKRGYWYTMLDRIKAEEKELIPDEKVRMRKR | not soluble |
| MWQAISQQLSDTLLFEYQITEKVRLSGGDISESYMINDGEQRYFVKINDREFLHKFEVEAESLHLLRETSTIFVPEVVLVGKTKNNAFIILNYLPTKPLDDPENSFKFGQQLAQLHQWGEQKEFGFDTDNYLGSTLQPNQWHKKWCMFFAEQRIGWQLQLLKEKGVTLVDIDDFIDVVKQLLANHTPEPSLLHGDLWNGNVALTAFGPICFDPACYWGDRECDIAMTELFGGFQPEFYQGYESVMPLLPGYHERKDIYNLYHILNHCNLFGGHYLEQAQLTINKIISYLEHHHHHH | soluble |
| MKIVSKSSPLPLHYQLKMILQEMIENEELLPGDTIPTERELCEIQKISRMTVNKAILSLVSEGILYREQGKGTFVAKKKEKQQLTKLKSFTEEMREKGLNISTKILSFEIKTATKHISTLLELPHKKMKVIEIIRLRLTDNDPSAIETVVLPLYLFSDMTKEVIDGKSLYNTFREKYGYEPTKAKQTIEPIMLTDYEAKFLNQVGNSLALLFRRLTYRKDGVPIEYTKSIYRSEKYKYEVILT | not soluble |
| MKALTTRQQEVYDLVRDHLAQTGMPPTRAEIAQRLGFRSPNAAEEHLKALARKGVIEIVSGASRGIRLLMEEEEGLPLIGRVAAGEPLLAQQHIEGHYKVDPSLFKPGADFLLRVNGMSMRDIGILDGDLLAVHKTQDVRNGQVVVARIDDEVTVKRLKKQGNIVHLLPENSEFQPIVVDLREQSFTIEGLAVGVIRNGDWI | not soluble |
| MSLKAVIFDMDGVLIDSEPLHLDYAFKLFKELNITMTPNEYSKFIGTTSLYMWSNIKDTYNLENTVESLINKERNGFFEFLSSPNTNIKPIDHIPELLGALKENNFKTAVASSSPMRVIKYIINNFELAKQFNELVTGDYVERSKPNPDIFLYAAKKLDVSPEQCVVIEDSHNGVLAAKNAGMKCIGFKNPNSGNQDLSKADTIIHSFNEIDILNEGHHHHHH | soluble |
| MGSDKIHHHHHHMKRIGIIAAWQPELNYLHEEYPSRKVRKIAAWEFHYHSINNLEIISVISGVGKTNCSSCTQLLISEFRPDEIYMTGICGSLSDSIKGGEIVIARQMLQHDVTNAGKGDDVWDLYTGRTSIIDGDNSIFSDFLNFAINTSEHKINNGMFISGDQRIREDVLRSSLSSTHNAIAVDQEIASFSYVSYVNKIPFLCVKSVSDQADNKTIEDQKRFKLLACENSCKLLIEFLLR | not soluble |
| MGSDKIHHHHHHMIPIVDSRIGAYLDGLLPEADPVVAAMEQIARERNIPIVDRQTGRLLYLLARIKQPQLVVVPGDGLGCASWWFARAISISSRVVMIDPDRDNVEHARRMLHDNGLIDRVELQVGDPLGIAAGQRDIDILFMDCDVFNGADVLERMNRCLAKNALLIAVNALRRGSVAESHEDPETAALREFNHHLSRRRDFFTTIVPVGNGVLLGYRLS | not soluble |
| KREPALNPNEYKKFMLREKQIINHNTRLFRFNLHHPEDVVGLPIGQHMSVKATVDGKEIYRPYTPVSSDDEKGYFDLIIKVYEKGQMSQYIDHLNPGDFLQVRGPKGQFDYKPNMVKEMGMIAGGTGITPMLQVARAIIKNPKEKTIINLIFANVNEDDILLRTELDDMAKKYSNFKVYYVLNNPPAGWTGGVGFVSADMIKQHFSPPSSDIKVMMCGPPMMNKAMQGHLETLGYTPEQWFIF | soluble |
| MFYAHNVDFRVFADFLYLLRVRNSGNVVLILDNASFHKSSYVLATASRLNINLLFLPPYSLDLNRIEFGRI | soluble |
| MLALGIEGTAHTLGIGIVSEDKVLANVFDTLTTEKGGIHPKEAAEHHARLMKPLLRKALSEAGVSLDDIDVIAFSQGPGLGPALRVVATAARALAVKYRKPIVGVNHCIAHVEITKMFGVKDPVGLYVSGGNTQVLALEGGRYRVFGETLDIGIGNAIDVFARELGLGFPGGPKVEKLAEKGEKYIELPYAVKGMDLSFSGLLTEAIRKYRSGKYRVEDLAYSFQETAFAALVEVTERAVAHTEKDEVVLVGGVAANNRLREMLRIMTEDRGIKFFVPPYDLCRDNGAMIAYTGLRMYKAGISFRLEETIVKQKFRTDEVEIVWHHHHHH | soluble |
| MEINADFTKPVVIDTDQLEWRPSPMKGVERRMLDRIGGEVARATSIVRYAPGSRFSAHTHDGGEEFIVLDGVFQDEHGDYPAGTYVRNPPTTSHVPGSAEGCTIFVKLWQFDPADRTQFSKNMEAELGAPVEGISTSLLHEDERETVTHRKLEPGANLTSEAAGGIEVLVLDGDVTVNDEVLGRNAWLRLPEGEALSATAGARGAKIWMKTGHLRFVRTPEV | soluble |
| MNLKDKILGVAKELFIKNGYNATTTGEIVKLSESSKGNLYYHFKTKENLFLEILNIEESKWQEQWKKEQIKCKTNREKFYLYNELSLTTEYYYPLQNAIIEFYTEYYKTNSINEKMNKLENKYIDAYHVIFKEGNLNGEWSINDVNAVSKIAANAVNGIVTFTHEQNINERIKLMNKFSQIFLNGLSKHHHHHH | soluble |
| MINHKIFPTADAVVKSLADDMLAYSQQGQPVHISLSGGSTPKMLFKLLASQPYANDIQWKNLHFWWGDERCVAPDDAESNYGEANALLFSKINMPAQNIHRILGENEPQAEAERFAQAMAHVIPTENGTPVFDWILLGVGADGHTASLFPGQTDYADANLSVVASHPESGQLRVSKTAKVLQAAKRISYLVLGAGKAEIVEQIHTTPAEQLPYPAAKIHSTSGVTEWYLDSDAAAKIA | soluble |
| MGSDKIHHHHHHMNLPSILVIDDLPDNFDVIETLLSEQDYTLHYVASGQEAIASLNLFQPDLILLDVMMPGMDGIEVCQRIKAMPQWQSVPIIMVTALTAKEDLARCLKSGADDFISKPINALELRARLHSMLRIKQQYDKIQTLSNIQTSTIKVLESTLDELRGNLAAALPHELNTPLNGIVGTISILMADIENMDTGEIQELLGWVDLSARNLERLIKQLLLYLELELSTNQQQNIASESTHFSIAVIEAILQSHAPSVNRRDDLMFAIEEAEVSISARYLAIIIYELVDNALKFSRRGTTIKISSQVVAGMLNVYIHDFGRGMTEEQISKIGAFMQFERKTYEQQGIGMGLKLAKQIIESHGGLFSISSVYKKETMVHIALPIAYSRYLS | not soluble |
| SASERIIEKTPENSKFHKHQQKNYPLMSILKFHCRLLRCVSRCFTGITISYPATKHGYTKFEKLEDPLTGYTNMKRTIILDLDETLVHATTHLPGVKHDFMVMVKMEREIMPIFVVKRPGVTEFLERLGENYKVVVFTAGLEEYASQVLDKLDKNGVISQRLYRDSCTEVNGKYVKDLSLVVGKDLRSALIVDDNPSSYSLQPENGVPIKAFVDDLKDQELLNLVEFLESCYAYEDMRDAVTDLLAN | soluble |
| MRSLLLLALVSASAYASFDKIKDSIQNPLARGFGDDIAWVKWEDAIETALDTDKPIFLLIHKSWCHACKALKKTFQQSNAKKAFKKLSEHFVMVNTEDDDEPFEEEYRPDGKYIPRLLFLDKNGDLLQEFKNKKAEYKNYAYYYSSPADILNSMKDVLKHFGVDIPEAKRGDKLKPKKPEGKKKEL | not soluble |
| MLETLSFTERDEFQRRNIAENIIKLLKPEADISPLVIDGAWGTGKSEFSIKLKNLIIEQETESKVVYVDAFKGDHAESPLLLITSAIASILPEEEKQNFIKRSLPAIRFGLKTVLKAGAGWFLRQEASEVAEEFQDAMKKASNAAIDGTIENILEDHMESEKNINSLKSCIEDISNKQKIVIIIDELDRCKPSFSTNIIETIKHIFDINNVFFILVTNTEQLKASINHIYGYSINSQKYLDKFIKYTITLPDTCLINGHNVCKTSVIYWDHLVGETTLLNKINSLVGSFICDLIQRTNLSLRETQTFSRNLNIFRLLNDNECKSNDPFINMIVVVAVFIHCFGDKEKLKQEITAESISYLADLLNIKEIPYSYERRSQIPEISIIFFGIIKDSITLNERFAPKSDEELKKFTNVYTDYEHLKFWSTTPRELMIKYINQMSFIQLEHHHHHH | not soluble |
| MLDRPHHTTADIIARCEALFSDLSFTAAREWKAAEPGRIVVGFLPYYAPRELVHAAGGLPLGIFGGGDQLEVIHGDAYYQSYICRIPRSTIELGVSGRLDFVDGMMFPSICDVIRNLSGMWKLMFPSKGARYIDLPHNFDDDLGGEFYVSELRETCEWLSTLTGKPITSDAIRASIAVFNDNRRLIRALYQLRADEPWNVPSSELYLLLRAGMVIPVEEHNQMLADYLAAVRLQQRPIKDNSRVVICGMFCEQPPLNLIKSIELSGCYIVDDDFILVTRWENSDVALDGDPLSNLASAYLHDSKSTPPKYEPDEAKKGLYLVDSVRKNRAEGVIFAMTSFCDPGLLERPMLQAVLKSHGIPQIAFKYAENSGQMQPIREQAGTFADSIKLWSGA | not soluble |
| MANDGGAKLSKNLLRMKFMQRGLDAEVKKQLDEEEKRIISDEHWFLDLPELKAKENHIIEERSFVPCEDLVYGRMSFKGFNPDVEKLMLLMNAPREEEDEEEEDESMNKMETDITDEEMAKRYQSLVESMRKKFAKKRDRSAVSNKEDVNCNVTDDIRPKRAFMKPQD | soluble |
| MLSSSPASCTSPSPGTDNPDKKVHWASEKRRRASSTDSESKTHLDISKLPRSRRPSRLTVKYDRGHLQRWLEMEQWVDAQVQELFQGQEESSEPEIDLEALMDLSTEDQRTQLEAILQDCPGNREPFISELLSQLKRLRRLSRPSK | soluble |
| SANSGEGKVVCVTGASGYIASWLVKFLLSRGYTVKASVRDPSDPKKTQHLVSLEGAKERLHLFKADLLEQGSFDSAIDGCHGVFHTASPFFNDAKDPQAELIDPAVKGTLNVLNSCAKASSVKRVVVTSSMAAVGYNGKPRTPDVTVDETWFSDPELCEASKMWYVLSKTLAEDAAWKLAKEKGLDIVTINPAMVIGPLLQPTLNTSAAAILNLINGAKTFPNLSFGWVNVKDVANAHIQAFEVPSANGRYCLVERVVHHSEIVNILRELYPNLPLPERCVDENPYVPTYQVSKDKTRSLGIDYIPLKVSIKETVESLKEKGFAQF | soluble |
| MVIQLQKGQKIDLGKTSPGLTKAVIGLGWDIKSYDGGSDFDLDASAFLLDANGKCTKETDFIFYNNLQSPCGSVLHTGDNRTGEGEGEGDDEQLVVDLKKVPADVHRIAITVTIYDAEGRSQNFGQVGNAFVRLANEETNEEVLRFDLGEDFSIETAVVFCELYRHNGQWKFNAVGSGFQGGLGALVRAYGLDA | not soluble |
| MAHHHHHHMYEVYYLNEHDEFEKKKKKNEEIQSSLILKNHAISSEKKSKLVKHNIYEGGYTIWECTWDMLKFFHKEGFDFNNKQVLELGCGHGLVGIKVLLDNGNVVFQELNKEVINDVLLPNIKKNLKMKLKKKKLKENKHYMKINNDKITCYVINKPWHKLNSKLQKKKLNCFDFILGNEILYRKENYYHILKILKKNLKKGGKAYFGSKSYYFGFEDGTGSNSFVTYVNNNEHFNFVARIIQTTTGKSVYSKDIIEVTFSPNND | not soluble |
